Laboratory results reported in paper PMC7076015, “An epilepsy-associated mutation in the nuclear import receptor KPNA7 reduces nuclear localization signal binding”.

T1: MBP-CTCF(F4-F8) (Homo sapiens, UniProt P49711 351-489)
T1 sequence: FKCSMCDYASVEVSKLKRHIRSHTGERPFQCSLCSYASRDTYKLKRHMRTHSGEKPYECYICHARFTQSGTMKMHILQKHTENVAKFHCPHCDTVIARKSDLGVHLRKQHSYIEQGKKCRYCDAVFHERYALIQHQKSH


Columns and labels:
MBP-CTCF(F4-F8) [1] = biological target: T1, MBP-CTCF(F4-F8); assay: fluorescence anisotropy; 100 uM ZnCl2; apparent KD, fit bounds fixed to WT; above top protein concentration 34.5 uM; 20 mM Tris pH 8, 200 mM KCl, 100 uM ZnCl2, 1 mM DTT, 25 C; 10 nM dsDNA, MBP-CTCF up to 34.5 uM; details: protein: recombinant; tags: MBP (N-terminal, pMAL-c2g); label: 6-FAM at 5' end of reverse strand; blunt
MBP-CTCF(F4-F8) [2] = biological target: T1, MBP-CTCF(F4-F8); assay: fluorescence anisotropy; 100 uM ZnCl2; apparent KD; 20 mM Tris pH 8, 200 mM KCl, 100 uM ZnCl2, 1 mM DTT, 25 C; 10 nM dsDNA, MBP-CTCF up to 34.5 uM; details: protein: recombinant; tags: MBP (N-terminal, pMAL-c2g); label: 6-FAM at 5' end of reverse strand; blunt

Row | Binder | Kd (MBP-CTCF(F4-F8) [1]) | Kd (MBP-CTCF(F4-F8) [2])
1 | KPNA7 exon 7 CTCF motif c.1030G>C (dsDNA) DNA 1: ATCCAGAAGCAGGCAG DNA 2: CTGCCTGCTTCTGGAT | 76 ± 16.2 µM | 
2 | KPNA7 exon 7 CTCF motif WT (dsDNA) DNA 1: ATCCAGAAGGAGGCAG DNA 2: CTGCCTCCTTCTGGAT |  | 1.76 ± 0.084 µM
